Measured values taken from publication doi:10.64898/2025.12.11.693717.

Legend:
[1] = target: DCC I372R mutant, overexpressed in Cos7 cells (UniProt P70211); assay: immunostaining of cells or tissue
[2] = target: Deleted in Colorectal Cancer (DCC), wild type, overexpressed in Cos7 cells (UniProt P70211); assay: immunostaining of cells or tissue

recombinant Draxin (ligand)
Draxin mean fluorescence on DCC+ cells [1]: 0.72
Draxin mean fluorescence on DCC+ cells [2]: 0.95
